In patent US20150374394A1, “SONOLYSIS WITH BIODEGRADABLE NANOPARTICLES” (THE BOARD OF TRUSTEES OF THE UNIVERSITY OF ARKANSAS, priority 2012, published 2015):

Test system: clots formed from pooled rabbit plasma with rabbit blood cells
Test: In vitro sonothrombolysis (STBL) of clots with MBs, CPDL, tPA and/or 450 nm StNPs, pulsed 1 MHz ultrasound
Conditions: pulsed 1 MHz ultrasound 15 min, in bovine calf serum, 0.5 mL/min; control ultrasound alone; 3 μm MBs, 0.1 mg/ml tPA, 0.06% w/V CPDL nanoemulsion
Procedure: FIG. 1 depicts a graph showing the potentiation of sonothrombolysis (STBL) efficacy by microbubbles (MBs) and/or a nanoemulsion of cyclopentadecanolide with or without tissue plasminogen activator (tPA). […] STBL was performed with fibrin-rich clots (see Example 2) using pulsed, 1 MHz ultrasound for 15 min. The MBs, tPA, StNPs etc. were suspended in bovine calf serum and introduced at a flow rate of 0.5 mL/min. STBL efficacy is reported as % clot lysis. Abbreviations: US=ultrasound; MBs=microbubbles; CPDL=cyclopentadecanolide; StNPs=starch nanoparticles; tPA=tissue plasminogen activator.
The clots used in these experiments were formed by mixing pooled rabbit plasma with rabbit blood cells (final volume equal to 2 mL; the volume of whole rabbit blood from which the cells were obtained), incubating this mixture for 24 h at 37° C. and then curing the formed clots for 24 h at 5° C. […] The StNPs were diluted to have an Optical Density reading at 530 nm (OD530) of 1.0. […] STBL efficacy was measured as the percent of the initial clot mass that was lost from the clot during the 15 min treatment time.

B1: tissue plasminogen activator (protein, UniProt P00750 36-562, looked up)
Tissue-type plasminogen …: SYQVICRDEKTQMIYQQHQSWLRPVLRSNRVEYCWCNSGRAQCHSVPVKSCSEPRCFNGGTCQQALYFSDFVCQCPEGFAGKCCEIDTRATCYEDQGISYRGTWSTAESGAECTNWNSSALAQKPYSGRRPDAIRLGLGNHNYCRNPDRDSKPWCYVFKAGKYSSEFCSTPACSEGNSDCYFGNGSAYRGTHSLTESGASCLPWNSMILIGKVYTAQNPSAQALGLGKHNYCRNPDGDAKPWCHVLKNRRLTWEYCDVPSCSTCGLRQYSQPQFRIKGGLFADIASHPWQAAIFAKHRRSPGERFLCGGILISSCWILSAAHCFQERFPPHHLTVILGRTYRVVPGEEEQKFEVEKYIVHKEFDDDTYDNDIALLQLKSDSSRCAQESSVVRTVCLPPADLQLPDWTECELSGYGKHEALSPFYSERLKEAHVRLYPSSRCTSQHLLNRTVTDNMLCAGDTRSGGPQANLHDACQGDSGGPLVCLNDGRMTLVGIISWGLGCGQKDVPGVYTKVTNYLDWIRDNMRP
notes: thrombolytic agent, used at 0.1 mg/ml
In the case of B1, the “STBL efficacy (FIG. 1), in words” value is reported as “improved STBL efficacy”.
